In the assay the target is AAV-DJ capsid viral protein (VP) subunit of the empty capsid (virus-like particle). Briefly: cryo-EM structure; empty AAV-DJ capsids (VLPs) in 50 mM HEPES, 25 mM MgCl2, 25 mM NaCl, pH 7.4; I1 symmetry imposed; 1.56 Å resolution.

A word on the stoichiometry N: it is the number of molecules, sites or subunits per partner or assembly.

The substance “AAV-DJ capsid viral protein (VP) subunit of the empty capsid (virus-like particle)” gave a stoichiometry N of 60.

The values are drawn from article PMC7589773.
